Results on three sequences are retold here after patent publication US20230035403A1, “Method For Determining Responsiveness To Prostate Cancer Treatment” (Janssen Biotech, Inc., priority 2020, published 2023).

Holding throughout (experiment): In vitro binding of neoantigens to class I MHC (UV peptide exchange, HLA class I ELISA)
What all share (conditions): 100% = same binding affinity as positive control peptide
Background: An ELISA detects its analyte on a solid surface through an enzyme-linked reagent.

Assay [1] addresses HLA-A*01:01 (Homo sapiens, UniProt P04439, A114D/A174V/A182V/D101N/D185E/E176A/E190D/L180R/Q94H/R68K/S129P/T187R/V100A/V91M/W191G). On the procedure: (§1) The 9 mer peptides identified by bioinformatics analysis were analyzed for their binding propensities to 6 common HLA class I alleles (HLA-A*01:01, A*02:01, A*03:01, A*24:02, B*07:02, B*08:01). The principle of the method is briefly described below and consists of two parts, one involving exchange of peptide with a positive control induced by Ultraviolet (UV) radiation, and the second is an enzyme immunoassay to detect stable HLA-peptide and empty HLA complexes.
(§2) HLA-bound peptides are critical for the stability of the HLA complex.
(§3) The exchange efficiency between the peptide of interest and Pos was analyzed using an HLA class I ELISA. The combined technologies allowed the identification of ligands for an HLA molecule of interest which are potentially immunogenic.
(§4) The UV control represented UV-irradiation of conditional HLA class I complex in the absence of a rescue peptide.
(§5) The HLA class I ELISA is an enzyme immunoassay based on the detection of beta2-microglobulin (B2M) of (peptide-stabilized) HLA class I complexes. To this end streptavidin was bound onto polystyrene microtiter wells. After washing and blocking, HLA complex present in exchange reaction mixtures or ELISA controls was captured by the streptavidin on the microtiter plate via its biotinylated heavy chain. Non-bound material was removed by washing. Subsequently, horseradish peroxidase (HRP)-conjugated antibody to human B2M was added. […] In the latter case B2M was removed during the washing step. After removal of non-bound HRP conjugate by washing, a substrate solution was added to the wells. A coloured product formed in proportion to the amount of intact HLA complex present in the samples. After the reaction was terminated by the addition of a stop solution, absorbance was measured in a microtiter plate reader. […] Suboptimal HLA binding of peptides with a moderate to low affinity for HLA class I molecules can also be detected by this ELISA technique (Rodenko, B et al. (2006) Nature Protocols 1: 1120-32).
(§6) Binding of select neoepitopes to HLA-A*01:01, HLA-A*02:01, HLA-A*03:01, HLA-A*24:02, HLA-B*07:02 and HLA-B*08:01 was evaluated using the assay described in Example 1. […] As a criterion for further evaluation, peptides with an exchange rate of at least […] with the corresponding Pos peptide for at least one of the 6 HLA alleles that we considered for further evaluation. […] Higher percentages correspond to stronger binding to the HLA allele.

Assay [2] concerns the target HLA-A*02:01 (Homo sapiens, UniProt P04439, D140Y/D185E/D98H/E176V/E277Q/G131W/G231S/I119V/I121R/I166T/I218V/L300P/L318F/N151K/N90K/P208A/P217A/Q86G/Q94H/R138H/R169H/T345S). The protocol:
as §1, §2, §3, §4, §5, §6

In assay [3] the target is HLA-A*03:01 (Homo sapiens, UniProt P04439). The protocol:
as §1, §2, §3, §4, §5, §6

Assay [4] concerns the target HLA-A*24:02 (Homo sapiens, UniProt P04439, D101N/D140Y/D185E/E176V/E190D/F33S/G103R/G107R/I119L/I121M/I306V/K335N/L105A/L180Q/L300P/N151K/N90K/Q86E/Q94H/R106L/R138H/R89G/T104I/T345S/V100E/W191G/Y123F). On the procedure: as §1, §2, §3, §4, §5, §6
For assay [5], the target named is HLA-B*07:02 (Homo sapiens, UniProt P01889). On the procedure:
as §1, §2, §3, §4, §5, §6

For assay [6], the target named is HLA-B*08:01 (Homo sapiens, UniProt P01889, A93T/A95T/D138N/E176V/E187T/K202T/Q94N/R180D/S35A/V36M/Y33D/Y91F). The protocol: as §1, §2, §3, §4, §5, §6

As for SLYHREKQLIAMDSAI [Neoantigen P22], the “Exchange rate with the allele specific Pos peptide, HLA-A*01:01” value (“Exchange rate … HLA-A*01:01” below) in assay [1] amounted to 4.4%. Moreover, in assay [2], the “Exchange rate with the allele specific Pos peptide, HLA-A*02:01” value (shortened to “Exchange rate … HLA-A*02:01”) is 46.9%. Moreover, in assay [3], the “Exchange rate with the allele specific Pos peptide, HLA-A*03:01” value (“Exchange rate … HLA-A*03:01” for short) is on record as 4.8%. Also, in assay [4], the “Exchange rate with the allele specific Pos peptide, HLA-A*24:02” value (“Exchange rate … HLA-A*24:02” below) is 0%. In addition, in assay [5], the “Exchange rate with the allele specific Pos peptide, HLA-B*07:02” value (shortened to “Exchange rate … HLA-B*07:02”) is 8.3%. Moreover, the “Exchange rate with the allele specific Pos peptide, HLA-B*08:01” value (“Exchange rate … HLA-B*08:01” for short) in assay [6] came out at 3.9%.
On to “YEAGMTLGEKFRVGNCKHLKMTRP [Neoantigen P82]”, for which, in assay [1], the “Exchange rate … HLA-A*01:01” value was 1.5%. Besides, the “Exchange rate … HLA-A*02:01” value in assay [2] is given as 6.3%. The “Exchange rate … HLA-A*03:01” value in assay [3] came to 58.1%. In addition, in assay [4], the “Exchange rate … HLA-A*24:02” value was −0.1%. Also, the “Exchange rate … HLA-B*07:02” value in assay [5] was 12.9%. In assay [6], the “Exchange rate … HLA-B*08:01” value is 1.4%.
Turning to “YEAGMTLGGKILFFLFLLLPLSPFSLIF [Neoantigen P87]”, in assay [1], the “Exchange rate … HLA-A*01:01” value amounted to 1.1%. In addition, the “Exchange rate … HLA-A*02:01” value in assay [2] was 64%. Further, the “Exchange rate … HLA-A*03:01” value in assay [3] was found to be 2.4%. Further, in assay [4], the “Exchange rate … HLA-A*24:02” value is recorded as 0.2%. Besides, in assay [5], the “Exchange rate … HLA-B*07:02” value is listed as 5%. Moreover, the “Exchange rate … HLA-B*08:01” value in assay [6] amounted to 3.1%.
